Source: patent US20240277831A1 (University of Washington, published 2024)

Tests used:
[1] = target: Monomeric SARS-CoV-2 RBD (SARS-CoV-2, UniProt P0DTC2 328-531)
[2] = target: RBD-8GS-I53-50A trimeric component (SARS-CoV-2)
[3] = target: RBD-12GS-I53-50A trimeric component (SARS-CoV-2)

B1: monomeric human ACE2 (hACE2) ectodomain (receptor)
chain: STIEEQAKTFLDKFNHEAEDLFYQSSLASWNYNTNITEENVQNMNNAGDKWSAFLKEQSTLAQMYPLQEIQNLTVKLQLQALQQNGSSVLSEDKSKRLNTILNTMSTIYSTGKVCNPDNPQECLLLEPGLNEIMANSLDYNERLWAWESWRSEVGKQLRPLYEEYVVLKNEMARANHYEDYGDYWRGDYEVNGVDGYDYSRGQLIEDVEHTFEEIKPLYEHLHAYVRAKLMNAYPSYISPIGCLPAHLLGDMWGRFWTNLYSLTVPFGQKPNIDVTDAMVDQAWDAQRIFKEAEKFFVSVGLPNMTQGFWENSMLTDPGNVQKAVCHPTAWDLGKGDFRILMCTKVTMDDFLTAHHEMGHIQYDMAYAAQPFLLRNGANEGFHEAVGEIMSLSAATPKHLKSIGLLSPDFQEDNETEINFLLKQALTIVGTLPFTYMLEKWRWMVFKGEIPKDQWMKKWWEMKREIVGVVEPVPHDETYCDPASLFHVSNDYSFIRYYTGTLYQFQFQEALCQAAKHEGPLHKCDISNSTEAGQKLFNMLRLGKSEPWTLALENVVGAKNMNVRPLLNYFEPLFTWLKDQNKNSFVGWSTDWSPYADPLVPR
Binder B1 has a Kd [1] of 69 nM, a koff [1] of 0.005 s⁻¹ and a kon [1] of 70000 M⁻¹ s⁻¹. The Kd [2] was 70 nM, the koff [2] was 0.004 s⁻¹ and the kon [2] was 60000 M⁻¹ s⁻¹. It also gave a Kd [3] of 78 nM, a koff [3] of 0.005 s⁻¹ and a kon [3] of 60000 M⁻¹ s⁻¹.
